PMC8746622, “Purification, Characterization, and Structural Studies of a Sulfatase from Pedobacter yulinensis” (Molecules, 2021)

Assays:
[1] = target: Pedobacter yulinensis sulfatase (PyuS), recombinant, without the putative N-terminal signal peptide, C-terminal His6-tag (Pedobacter yulinensis); experiment: SEC; HiLoad 16/600 Superdex 200 pg, 10 mM Tris, 150 mM sodium chloride, pH 8.0, 1.2 mL/min, 4 °C; molecular weights of the two peaks from SEC MW standards; monomer and dimer
purified protein = substrate: Cc1cc(=O)oc2cc(OS(=O)(=O)O)ccc12; experiment: purified protein; type: biochemical, Pedobacter yulinensis; conditions: 25 mM Bis-Tris pH 6.5, 1.0 mM CaCl2, room temperature, SEC monomer

percent of soluble protein as homodimer [1] [%] | stoichiometry N [1] | Molecule | Km (purified protein) [µM] | kcat (purified protein) [s⁻¹]
10 | 2 | Pedobacter yulinensis sulfatase (PyuS), recombinant, without the putative N-terminal signal peptide, C-terminal His6-tag (enzyme) | – | –
– | – | PyuS (Pedobacter yulinensis) (protein, signal peptide (native residues 2-24) removed; C-terminal GSHHHHHH tag kept; expressed in E. coli with M. tuberculosis FGE (active-site Cys converted to formylglycine, FGly55); 459 residues, 51,320 Da; SEC monomer) QGSRKPNIIFIMADDLGWGELGSYGNTFNETPNLDRLSAQGMRFTQAYAAAPVCSPTRASIMTGQYPARVGITDFLPEDEKTDRWLDPTKYVTLNEALSASGYHTGIVGKWHLDTDFKLNKGGPKAHGFNEVIGTESEYIADGDYFFPYSKIASFDKGTANEYLTDRQCAEANAFITRNREKPFFLYLSLYSVHTRLEAPVQLVEKYKQKFDQKYGTGKAEQFFGANNVRHESAQRDNPWLAAMLESIDTGVGGIMKTLRETGLAENTIIVFFSDNGGAGKAGNNAHLRAGKTWLYEGGIREPLIVSWPGKIKGNTVNDNPVTSLDFYPTFLAAAGGKPTGGRLDGHNLMPLLRGGRASGRPLFWHYPSETGKWVNRMSSAVREGNYKLLEFYNNPRLELYDLQNDPSESHNLATDRPAETARLKKLLEDWKKEVNAEAPHLARKEKKKP | 1890 | 0.00983
